Measurements: ChEMBL document CHEMBL1212771, “BEL-2, an extended-spectrum beta-lactamase with increased activity toward expanded-spectrum cephalosporins in Pseudomonas aeruginosa” (Antimicrob Agents Chemother, 2010)
Converted amounts (≈) assume the structure as drawn.

Key:
Pseudomonas aeruginosa [1] = assay: Antimicrobial activity against Pseudomonas aeruginosa 531 expressing beta-lactamase BEL-2 by solid agar dilution method; format: functional
Pseudomonas aeruginosa [2] = assay: Antimicrobial activity against Pseudomonas aeruginosa 51170 expressing beta-lactamase BEL-1 by solid agar dilution method; format: functional
Escherichia coli [3] = assay: Antimicrobial activity against Escherichia coli TOP10 expressing recombinant beta-lactamase BEL-1 by solid agar dilution method; format: functional
Escherichia coli [4] = assay: Antimicrobial activity against Escherichia coli TOP10 expressing recombinant beta-lactamase BEL-2 by solid agar dilution method; format: functional
Escherichia coli [5] = assay: Antimicrobial activity against Escherichia coli TOP10 by solid agar dilution method; format: functional
[6] = substrate: O=C(Cc1cccs1)N[C@@H]1C(=O)N2C(C(=O)[O-])=C(C[n+]3ccccc3)CS[C@H]12; assay: (§1) Activity at Pseudomonas aeruginosa 531 beta-lactamase BEL-2
[7] = substrate: CO/N=C(\C(=O)N[C@@H]1C(=O)N2C(C(=O)O)=C(COC(N)=O)CS[C@H]12)c1ccco1; assay: as §1
[8] = substrate: CC1(C)S[C@@H]2[C@H](NC(=O)Cc3ccccc3)C(=O)N2[C@H]1C(=O)O; assay: as §1
[9] = substrate: CO/N=C(\C(=O)N[C@@H]1C(=O)N2C(C(=O)O)=C(COC(C)=O)CS[C@H]12)c1csc(N)n1; assay: as §1
[10] = substrate: CC(=O)OCC1=C(C(=O)O)N2C(=O)[C@@H](NC(=O)Cc3cccs3)[C@H]2SC1; assay: as §1
[11] = substrate: CCN1CCN(C(=O)N[C@@H](C(=O)N[C@@H]2C(=O)N3[C@@H]2SC(C)(C)[C@@H]3C(=O)O)c2ccccc2)C(=O)C1=O; assay: as §1
[12] = substrate: C[C@H]1[C@H](NC(=O)/C(=N\OC(C)(C)C(=O)O)c2csc(N)n2)C(=O)N1S(=O)(=O)O; assay: as §1
[13] = substrate: C[C@@H](O)[C@H]1C(=O)N2C(C(=O)O)=C(SCCNC=N)C[C@H]12; assay: as §1
[14] = substrate: CO[C@@]1(NC(=O)Cc2cccs2)C(=O)N2C(C(=O)O)=C(COC(N)=O)CS[C@@H]21; assay: as §1
[15] = substrate: CO/N=C(\C(=O)N[C@@H]1C(=O)N2C(C(=O)[O-])=C(C[N+]3(C)CCCC3)CS[C@H]12)c1csc(N)n1; assay: as §1
[16] = substrate: CC(C)(O/N=C(\C(=O)N[C@@H]1C(=O)N2C(C(=O)[O-])=C(C[n+]3ccccc3)CS[C@H]12)c1csc(N)n1)C(=O)O; assay: as §1
[17] = substrate: O=C(Cc1cccs1)N[C@@H]1C(=O)N2C(C(=O)[O-])=C(C[n+]3ccccc3)CS[C@H]12; assay: (§2) Ratio of Kcat to Km for Pseudomonas aeruginosa 531 beta-lactamase BEL-2
[18] = substrate: CO/N=C(\C(=O)N[C@@H]1C(=O)N2C(C(=O)O)=C(COC(N)=O)CS[C@H]12)c1ccco1; assay: as §2
[19] = substrate: CC1(C)S[C@@H]2[C@H](NC(=O)Cc3ccccc3)C(=O)N2[C@H]1C(=O)O; assay: as §2
[20] = substrate: CO/N=C(\C(=O)N[C@@H]1C(=O)N2C(C(=O)O)=C(COC(C)=O)CS[C@H]12)c1csc(N)n1; assay: as §2
[21] = substrate: CC(=O)OCC1=C(C(=O)O)N2C(=O)[C@@H](NC(=O)Cc3cccs3)[C@H]2SC1; assay: as §2
[22] = substrate: CCN1CCN(C(=O)N[C@@H](C(=O)N[C@@H]2C(=O)N3[C@@H]2SC(C)(C)[C@@H]3C(=O)O)c2ccccc2)C(=O)C1=O; assay: as §2
[23] = substrate: C[C@H]1[C@H](NC(=O)/C(=N\OC(C)(C)C(=O)O)c2csc(N)n2)C(=O)N1S(=O)(=O)O; assay: as §2
[24] = substrate: CO/N=C(\C(=O)N[C@@H]1C(=O)N2C(C(=O)[O-])=C(C[N+]3(C)CCCC3)CS[C@H]12)c1csc(N)n1; assay: as §2
[25] = substrate: CC(C)(O/N=C(\C(=O)N[C@@H]1C(=O)N2C(C(=O)[O-])=C(C[n+]3ccccc3)CS[C@H]12)c1csc(N)n1)C(=O)O; assay: as §2
[26] = substrate: O=C(Cc1cccs1)N[C@@H]1C(=O)N2C(C(=O)[O-])=C(C[n+]3ccccc3)CS[C@H]12; assay: (§3) Activity at Pseudomonas aeruginosa 51170 beta-lactamase BEL-1
[27] = substrate: CO/N=C(\C(=O)N[C@@H]1C(=O)N2C(C(=O)O)=C(COC(N)=O)CS[C@H]12)c1ccco1; assay: as §3
[28] = substrate: CC1(C)S[C@@H]2[C@H](NC(=O)Cc3ccccc3)C(=O)N2[C@H]1C(=O)O; assay: as §3
[29] = substrate: CO/N=C(\C(=O)N[C@@H]1C(=O)N2C(C(=O)O)=C(COC(C)=O)CS[C@H]12)c1csc(N)n1; assay: as §3
[30] = substrate: CC(=O)OCC1=C(C(=O)O)N2C(=O)[C@@H](NC(=O)Cc3cccs3)[C@H]2SC1; assay: as §3
[31] = substrate: CCN1CCN(C(=O)N[C@@H](C(=O)N[C@@H]2C(=O)N3[C@@H]2SC(C)(C)[C@@H]3C(=O)O)c2ccccc2)C(=O)C1=O; assay: as §3
[32] = substrate: C[C@H]1[C@H](NC(=O)/C(=N\OC(C)(C)C(=O)O)c2csc(N)n2)C(=O)N1S(=O)(=O)O; assay: as §3
[33] = substrate: C[C@@H](O)[C@H]1C(=O)N2C(C(=O)O)=C(SCCNC=N)C[C@H]12; assay: as §3
[34] = substrate: CO[C@@]1(NC(=O)Cc2cccs2)C(=O)N2C(C(=O)O)=C(COC(N)=O)CS[C@@H]21; assay: as §3
[35] = substrate: CO/N=C(\C(=O)N[C@@H]1C(=O)N2C(C(=O)[O-])=C(C[N+]3(C)CCCC3)CS[C@H]12)c1csc(N)n1; assay: as §3
[36] = substrate: CC(C)(O/N=C(\C(=O)N[C@@H]1C(=O)N2C(C(=O)[O-])=C(C[n+]3ccccc3)CS[C@H]12)c1csc(N)n1)C(=O)O; assay: as §3
[37] = substrate: O=C(Cc1cccs1)N[C@@H]1C(=O)N2C(C(=O)[O-])=C(C[n+]3ccccc3)CS[C@H]12; assay: (§4) Ratio of Kcat to Km for Pseudomonas aeruginosa 51170 beta-lactamase BEL-1
[38] = substrate: CO/N=C(\C(=O)N[C@@H]1C(=O)N2C(C(=O)O)=C(COC(N)=O)CS[C@H]12)c1ccco1; assay: as §4
[39] = substrate: CC1(C)S[C@@H]2[C@H](NC(=O)Cc3ccccc3)C(=O)N2[C@H]1C(=O)O; assay: as §4
[40] = substrate: CO/N=C(\C(=O)N[C@@H]1C(=O)N2C(C(=O)O)=C(COC(C)=O)CS[C@H]12)c1csc(N)n1; assay: as §4
[41] = substrate: CC(=O)OCC1=C(C(=O)O)N2C(=O)[C@@H](NC(=O)Cc3cccs3)[C@H]2SC1; assay: as §4
[42] = substrate: CCN1CCN(C(=O)N[C@@H](C(=O)N[C@@H]2C(=O)N3[C@@H]2SC(C)(C)[C@@H]3C(=O)O)c2ccccc2)C(=O)C1=O; assay: as §4
[43] = substrate: C[C@H]1[C@H](NC(=O)/C(=N\OC(C)(C)C(=O)O)c2csc(N)n2)C(=O)N1S(=O)(=O)O; assay: as §4
[44] = substrate: CO/N=C(\C(=O)N[C@@H]1C(=O)N2C(C(=O)[O-])=C(C[N+]3(C)CCCC3)CS[C@H]12)c1csc(N)n1; assay: as §4

C[C@@H](O)[C@H]1C(=O)N2C(C(=O)O)=C(SCCNC=N)C[C@H]12 [IMIPENEM ANHYDROUS]
MIC (Pseudomonas aeruginosa [1]): 1 µg/mL (≈ 3.34 µM)

CC(=O)OCC1=C(C(=O)O)N2C(=O)[C@@H](NC(=O)Cc3cccs3)[C@H]2SC1 [CEPHALOTHIN]
MIC (Pseudomonas aeruginosa [2]): > 512 µg/mL
MIC (Pseudomonas aeruginosa [1]): > 512 µg/mL
MIC (Escherichia coli [3]): 256 µg/mL
MIC (Escherichia coli [4]): 256 µg/mL
MIC (Escherichia coli [5]): 2 µg/mL (≈ 5.04 µM)

CC1(C)S[C@@H]2[C@H](NC(=O)[C@H](N)c3ccc(O)cc3)C(=O)N2[C@H]1C(=O)O [AMOXICILLIN]
MIC (Pseudomonas aeruginosa [2]): > 512 µg/mL
MIC (Pseudomonas aeruginosa [1]): > 512 µg/mL
MIC (Escherichia coli [3]): > 512 µg/mL
MIC (Escherichia coli [4]): > 512 µg/mL
MIC (Escherichia coli [5]): 4 µg/mL (≈ 10.9 µM)

CCN1CCN(C(=O)N[C@@H](C(=O)N[C@@H]2C(=O)N3[C@@H]2SC(C)(C)[C@@H]3C(=O)O)c2ccccc2)C(=O)C1=O [PIPERACILLIN]
MIC (Pseudomonas aeruginosa [2]): 16 µg/mL (≈ 30.9 µM)
MIC (Pseudomonas aeruginosa [1]): 16 µg/mL (≈ 30.9 µM)
MIC (Escherichia coli [3]): 128 µg/mL
MIC (Escherichia coli [4]): 32 µg/mL
MIC (Escherichia coli [5]): 1 µg/mL (≈ 1.93 µM)

C[C@H]1[C@H](NC(=O)/C(=N\OC(C)(C)C(=O)O)c2csc(N)n2)C(=O)N1S(=O)(=O)O [AZTREONAM]
MIC (Pseudomonas aeruginosa [2]): 16 µg/mL (≈ 36.7 µM)
MIC (Pseudomonas aeruginosa [1]): 64 µg/mL (≈ 147 µM)
MIC (Escherichia coli [3]): 16 µg/mL
MIC (Escherichia coli [4]): 16 µg/mL

B1: Beta-lactamase (Pseudomonas aeruginosa), D2SSQ3 (protein)
chain: MKLLLYPLLLFLVIPAFAQADFEHAISDLEAHNQAKIGVALVSENGNLIQGYRANERFAMCSTFKLPLAALVLSRIDAGEENPERKLHYDSAFLEEYAPAAKRYVATGYMTVTEAIQSALQLSDNAAANLLLKEVGGPPLLTKYFRSLGDKVSRFDRIEPTLNTNTPGDERDTTTPMSMAQTVSKLIFGDTLTYKSKGQLRRLLIGNQTGDKTIRAGLPDSWVTGDKTGSCANGGRNDVAFFITTAGKKYVLSVYTNAPELQGEERALLIASVAKLARQYVVH
Km [6]: 8 µM
kcat [6]: 1.2 s⁻¹
Km [7]: 12 µM
kcat [7]: 0.88 s⁻¹
Km [8]: 4 µM
kcat [8]: 1.2 s⁻¹
Km [9]: 0.45 µM
kcat [9]: 0.13 s⁻¹
Km [10]: 2 µM
kcat [10]: 4.3 s⁻¹
Km [11]: 0.3 µM
kcat [11]: 1.1 s⁻¹
Km [12]: 0.36 µM
kcat [12]: 0.1 s⁻¹
kcat [13]: < 0.01 s⁻¹
kcat [14]: < 0.01 s⁻¹
Km [15]: 0.3 µM
kcat [15]: 0.003 s⁻¹
Km [16]: 0.64 µM
kcat [16]: 0.03 s⁻¹
kcat/Km [17]: 150000 M⁻¹ s⁻¹
kcat/Km [18]: 73000 M⁻¹ s⁻¹
kcat/Km [19]: 300000 M⁻¹ s⁻¹
kcat/Km [20]: 290000 M⁻¹ s⁻¹
kcat/Km [21]: 2.2e+06 M⁻¹ s⁻¹
kcat/Km [22]: 300000 M⁻¹ s⁻¹
kcat/Km [23]: 280000 M⁻¹ s⁻¹
kcat/Km [24]: 10000 M⁻¹ s⁻¹
kcat/Km [25]: 47000 M⁻¹ s⁻¹

B2: Beta-lactamase bla(BEL1) (Pseudomonas aeruginosa), Q3SAW3 (protein)
chain: MKLLLYPLLLFLVIPAFAQADFEHAISDLEAHNQAKIGVALVSENGNLIQGYRANERFAMCSTFKLPLAALVLSRIDAGEENPERKLHYDSAFLEEYAPAAKRYVATGYMTVTEAIQSALQLSDNAAANLLLKEVGGPPLLTKYFRSLGDKVSRLDRIEPTLNTNTPGDERDTTTPMSMAQTVSKLIFGDTLTYKSKGQLRRLLIGNQTGDKTIRAGLPDSWVTGDKTGSCANGGRNDVAFFITTAGKKYVLSVYTNAPELQGEERALLIASVAKLARQYVVH
Km [26]: 130 µM
kcat [26]: 30 s⁻¹
Km [27]: 40 µM
kcat [27]: 10 s⁻¹
Km [28]: 20 µM
kcat [28]: 3 s⁻¹
Km [29]: 250 µM
kcat [29]: 30 s⁻¹
Km [30]: 280 µM
kcat [30]: 150 s⁻¹
Km [31]: 15 µM
kcat [31]: 2 s⁻¹
Km [32]: 100 µM
kcat [32]: 10 s⁻¹
kcat [33]: < 0.01 s⁻¹
kcat [34]: < 0.01 s⁻¹
Km [35]: 150 µM
kcat [35]: 1 s⁻¹
Km [36]: > 700 µM
kcat [36]: > 1.5 s⁻¹
kcat/Km [37]: 230000 M⁻¹ s⁻¹
kcat/Km [38]: 250000 M⁻¹ s⁻¹
kcat/Km [39]: 150000 M⁻¹ s⁻¹
kcat/Km [40]: 250000 M⁻¹ s⁻¹
kcat/Km [41]: 540000 M⁻¹ s⁻¹
kcat/Km [42]: 130000 M⁻¹ s⁻¹
kcat/Km [43]: 100000 M⁻¹ s⁻¹
kcat/Km [44]: 7000 M⁻¹ s⁻¹
